Results from IntAct's records for PubMed 17446860.

B1: Ubiquitin carboxyl-terminal hydrolase 4 (Saccharomyces cerevisiae), P32571 (parent)
chain: MEQNIISTIRDECIRHRSKYLTIAQLTAIAEAKINEFIITGKAKDQDLSSLLDKCIDILSIYKKNSKDIKNIISCKNKGAMISSNSVMIIQLNYVYYKVIHIIVTTNIPHLSEFAKIKLHKSTSDEGNGNNNNNEFQLMNIYNTLLETLLKDENIAKIKSFIKSSIKQTKLNHEQEECNLMRTGSYITSNQLNSLISSSANSASSQMEILLIDIRSRLEFNKSHIDTKNIICLEPISFKMSYSDHDLEKKSLITSPNSEIKMFQSRNLFKFIILYTDANEYNVKQQSVLLDILVNHSFEKPISDDFTKIFILESGFPGWLKSNYGRQVSSSFPSNNNIKDDSVYINGNTSGLSLQHLPKMSPSIRHSMDDSMKEMLVAPTPLNHLQQQQQQQSDNDHVLKRSSSFKKLFSNYTSPNPKNSNSNLYSISSLSISSSPSPLPLHSPDPVKGNSLPINYPETPHLWKNSETDFMTNQREQLNHNSFAHIAPINTKAITSPSRTATPKLQRFPQTISMNLNMNSNGHSSATSTIQPSCLSLSNNDSLDHTDVTPTSSHNYDLDFAVGLENLGNSCYMNCIIQCILGTHELTQIFLDDSYAKHININSKLGSKGILAKYFARLVHMMYKEQVDGSKKISISPIKFKLACGSVNSLFKTASQQDCQEFCQFLLDGLHEDLNQCGSNPPLKELSQEAEARREKLSLRIASSIEWERFLTTDFSVIVDLFQGQYASRLKCKVCSHTSTTYQPFTVLSIPIPKKNSRNNITIEDCFREFTKCENLEVDEQWLCPHCEKRQPSTKQLTITRLPRNLIVHLKRFDNLLNKNNDFVIYPFLLDLTPFWANDFDGVFPPGVNDDELPIRGQIPPFKYELYGVACHFGTLYGGHYTAYVKKGLKKGWLYFDDTKYKPVKNKADAINSNAYVLFYHRVYGV
partner: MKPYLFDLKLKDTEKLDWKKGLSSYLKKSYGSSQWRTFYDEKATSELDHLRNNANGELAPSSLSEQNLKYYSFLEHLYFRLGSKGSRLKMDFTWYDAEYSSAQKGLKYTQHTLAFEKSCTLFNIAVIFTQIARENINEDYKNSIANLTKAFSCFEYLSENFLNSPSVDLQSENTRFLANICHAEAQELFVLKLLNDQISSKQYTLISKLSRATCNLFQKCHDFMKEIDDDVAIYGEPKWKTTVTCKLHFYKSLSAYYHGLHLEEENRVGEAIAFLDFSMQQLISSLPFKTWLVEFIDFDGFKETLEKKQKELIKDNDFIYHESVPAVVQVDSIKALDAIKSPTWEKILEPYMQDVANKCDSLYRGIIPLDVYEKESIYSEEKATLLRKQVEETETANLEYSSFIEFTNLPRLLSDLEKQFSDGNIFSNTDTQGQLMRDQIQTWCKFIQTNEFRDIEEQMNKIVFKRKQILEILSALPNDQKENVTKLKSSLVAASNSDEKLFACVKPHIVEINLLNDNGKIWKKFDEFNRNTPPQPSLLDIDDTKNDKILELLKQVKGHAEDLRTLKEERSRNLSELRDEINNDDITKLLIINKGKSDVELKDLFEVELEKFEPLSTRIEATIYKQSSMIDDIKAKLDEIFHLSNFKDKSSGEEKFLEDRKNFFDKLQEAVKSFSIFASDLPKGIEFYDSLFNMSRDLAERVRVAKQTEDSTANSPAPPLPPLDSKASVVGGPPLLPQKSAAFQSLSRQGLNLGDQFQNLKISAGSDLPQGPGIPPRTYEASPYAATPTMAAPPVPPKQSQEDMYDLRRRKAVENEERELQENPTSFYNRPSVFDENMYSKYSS
B2: Vacuolar-sorting protein BRO1 (Saccharomyces cerevisiae), P48582 (parent)
chain: B1 partner
partner: B1 chain

Variants of: B1
Conditions: with bro1_yeast BRO1, P48582

| effect of a mutation on the interaction | Variant |
| --- | --- |
| decreasing interaction | I825A |

Variants of: B1
Conditions: with bro1_yeast BRO1, P48582
Remark: another data set of the same source

| effect of a mutation on the interaction | Variant |
| --- | --- |
| disrupting interaction | V824A |

Variants of: B1
Conditions: with bro1_yeast BRO1, P48582
Remark: another data set of the same source

| effect of a mutation on the interaction | Variant |
| --- | --- |
| disrupting interaction | Y826A |

Variants of: B1
Conditions: with bro1_yeast BRO1, P48582
Remark: another data set of the same source

| effect of a mutation on the interaction | Variant |
| --- | --- |
| disrupting interaction | P827A |

Variants of: B1
Conditions: with bro1_yeast BRO1, P48582
Remark: another data set of the same source

| effect of a mutation on the interaction | Variant |
| --- | --- |
| disrupting interaction | L829A |

Variants of: B1
Conditions: with bro1_yeast BRO1, P48582
Remark: another data set of the same source

| effect of a mutation on the interaction | Variant |
| --- | --- |
| disrupting interaction | L830A |

Variants of: B2
Conditions: with ubp4_yeast DOA4, P32571

| effect of a mutation on the interaction | Variant |
| --- | --- |
| disrupting interaction | P831A |

Variants of: B2
Conditions: with ubp4_yeast DOA4, P32571
Remark: another data set of the same source

| effect of a mutation on the interaction | Variant |
| --- | --- |
| disrupting interaction | S832A |

Variants of: B2
Conditions: with ubp4_yeast DOA4, P32571
Remark: another data set of the same source

| effect of a mutation on the interaction | Variant |
| --- | --- |
| disrupting interaction | V833A |

Variants of: B2
Conditions: with ubp4_yeast DOA4, P32571
Remark: another data set of the same source

| effect of a mutation on the interaction | Variant |
| --- | --- |
| disrupting interaction | F834A |
